Reference: patent US20090062179A1 (University of Texas, published 2009)

Molecular target: T1, VP16-ERα chimera (full-length ERα fused to the Herpes simplex virus VP16 transactivation domain) (Herpes simplex virus, UniProt P03372 1-595)
T1 construct: Expressed in HeLa cells for the mammalian two-hybrid assay; also called pACT-ERα
T1 sequence: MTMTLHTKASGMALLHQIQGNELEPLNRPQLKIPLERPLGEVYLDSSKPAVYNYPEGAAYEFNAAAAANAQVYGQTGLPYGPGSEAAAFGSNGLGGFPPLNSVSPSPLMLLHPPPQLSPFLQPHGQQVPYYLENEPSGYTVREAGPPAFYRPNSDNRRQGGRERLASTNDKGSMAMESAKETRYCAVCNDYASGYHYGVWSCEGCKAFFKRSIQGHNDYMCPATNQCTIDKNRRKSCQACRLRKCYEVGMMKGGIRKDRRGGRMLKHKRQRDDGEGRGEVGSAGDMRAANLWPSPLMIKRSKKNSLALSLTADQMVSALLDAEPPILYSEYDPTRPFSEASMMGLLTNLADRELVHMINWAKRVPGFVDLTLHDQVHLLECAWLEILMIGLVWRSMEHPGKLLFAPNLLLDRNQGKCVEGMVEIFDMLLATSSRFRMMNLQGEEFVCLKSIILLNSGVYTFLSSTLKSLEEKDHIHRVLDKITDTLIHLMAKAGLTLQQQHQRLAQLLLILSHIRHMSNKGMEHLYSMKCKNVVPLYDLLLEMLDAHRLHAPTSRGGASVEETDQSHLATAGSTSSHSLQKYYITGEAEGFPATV
Assay: mammalian two-hybrid (luciferase reporter) in HeLa cells, hormone-free

B1: GAL4-DBC-1-C terminal chimera (amino acids 479-923) (other, yeast;human, UniProt P04386 1-147, looked up)
chain: MKLLSSIEQACDICRLKKLKCSKEKPKCAKCLKNNWECRYSPKTKRSPLTRAHLTEVESRLERLEQLFLLIFPREDLDMILKMDSLQDIKALLTGLFVQDNVNKDAVTDRLASVETDMPLTLRQHRISATSSSEESSNKGQRQLTVSRRNAETPEATTQQETDTDLPEAPPPPLEPAVIARPGCVNLSLHGIVEDRRPKERISFEVMVLAELFLEMLQRDFGYRVYKMLLSLPEKVVSPPEPEKEEAAKEEATKEEEAIKEEVVKEPKDEAQNEGPATESEAPLKEDGLLPKPLSSGGEEEEKPRGEASEDLCEMALDPELLLLRDDGEEEFAGAKLEDSEVRSVASNQSEMEFSSLQDMPKELDPSAVLPLDCLLAFVFFDANWCGYLHRRDLERILLTLGIRLSAEQAKQLVSRVVTQNICQYRSLQYSRQEGLDGGLPEEVLFGNLDLLPPPGKSTKPGAAPTEHKALVSHNGSLINVGSLLQRAEQQDSGRLYLENKIHTLELKLEESHNRFSATEVTNKTLAAEMQELRVRLAEAEETARTAERQKSQLQRLLQELRRRLTPLQLEIQRVVEKADSWVEKEEPAPSN
notes: Expressed in HeLa cells for the mammalian two-hybrid assay
B1: no binding.
